Data on 41 sequences can be found in the nanobody polyreactivity screen of Harvey et al. (2022).

The nature of the data set: yeast display, Sf9 membrane polyspecificity reagent, FACS + sequencing; frameworks hold sequencing errors. In a few lines:
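Sorting gates, low and high (top ~1%), were placed on anti-HA fluorescence to track expression and on streptavidin fluorescence to track reagent binding. A clone's polyreactivity label is taken from the gate it came out of. The reagent was 10% biotinylated, detergent-solubilized Sf9 membrane, applied for 1 hour at 4 °C to galactose-induced yeast display cells.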
For the sequence “QVQLVESGGGLVQAGGSLRLSCAASGRTFRRNAMGWYRQAPGKERELVAAISSRGGSTYYADSVKGRFTISRDNAKNSVYLQMNSLKPEDTAVYYCNKGTPPTGTLGDYEYWGQGTQVTVSS”, the “polyreactivity (PSR sort gate)” value is “high polyreactivity”.
In the case of “QVQLVESGGGLVQAGGSLRLSCAASGRTFRRYAMGWYRQAPGKERELVAAISRSGGSTYYADSVKGRFTISRDNAKNTVYLQMNSLKPEETAVYYCAAGIWSKLVEPFDYWGQGTQVTVSS” it was “high polyreactivity”.
The value for “QVQLVESGGGLVQAGGSLRLSCAASGRTFRRYAMGWYRQAPGKERELVAVITRGGNTNYADSVKGRFTISRDNAKNTVYLQMNSLKPEDTAVYYCAAELYNYGYDYWGQGTQVTVSS” was “low polyreactivity”; that for “QVQLVESGGGLVQAGGSLRLSCAASGRTFRSDNAMGWYRQAPGKERELVAAISQGGGTYYADSVKGRFTISRDNAKNTVYLQMNSLKPEDTAVYYCARDAYYADPSLWYYTYDYWGQGTQVNVSS” was “low polyreactivity”.
As for “QVQLVESGGGLVQAGGSLRLSCAASGRTFRSNAMGWYRQAPGKERELVATISGRGGSTYYADSVKGRFTISRDNAKNTVYLQMNSLKPEDTAVYYCAKRTTLIRDYEYWGQGTQVTVSS”, the “polyreactivity (PSR sort gate)” value is reported as “high polyreactivity”.
In the case of “QVQLVESGGGLVQAGGSLRLSCAASGRTFRSNTKGGYRQAPGKERELVAAISWSGTRTYYADSVKGRFTISRDNAKNSVYLQMNSLKPEDTAVYYCNAVGFDQPRYYYWGQGTQVTVSS”, the “polyreactivity (PSR sort gate)” value is recorded as “high polyreactivity”.
In the case of “QVQLVESGGGLVQAGGSLRLSCAASGRTFRSNVMRWYRQAPGKERELVASITWSGGTTYYADSVKGRFTISRDNAKNTVYLQMNSLKPEDTAVYYCNAADERSQGWVGYDHWGQCTQVTVSS” it was “low polyreactivity”; in that of “QVQLVESGGGLVQAGGSLRLSCAASGRTFRSYAMGWYRQAPGKERELVAAISDGGSTNYADSVKGRFTISRDNAKNTVYLQMNSLKPEDTAVYYCAAEIFFAVFRFYYWGQGTQVTVSS”, “low polyreactivity”.
In the case of “QVQLVESGGGLVQAGGSLRLSCAASGRTFRSYAMGWYRQAPGKERELVAAISRGGRTNYADSVKGRFTISRDNAKNTVYLQMNSLKPEDTAVYYCAARLPYLGGYDYWGQGTQVTVSS” it was “high polyreactivity”.
Regarding “QVQLVESGGGLVQAGGSLRLSCAASGRTFRSYTMGWYRQAPGKERELVAAIRTSSGSTYYADSVKGRFTISRDNAKNTVYLQMNSLKPEDSGVYYGAKTLLYPWFRTVAVDYWGQGTQVTVSS”, the “polyreactivity (PSR sort gate)” value is given as “low polyreactivity”.
In the case of “QVQLVESGGGLVQAGGSLRLSCAASGRTFRSYTMGWYRQAPGKERELVASITRSGVSTYYADSVKGRFTISRDNAKNTVYLQMNSLKPEDTAVYYCAAYSVFRSYDYWGQGTQVTVSS”, the “polyreactivity (PSR sort gate)” value is on record as “high polyreactivity”.
In the case of “QVQLVESGGGLVQAGGSLRLSCAASGRTFRTYAMGWYRQAPGKERELVAAISFSDGSTYYADSVKGRFTISRDNAKNTVYLQMNSLKPEDTAVYYCAKEYEYPYYIRYQVGYDFDYWGQGTEVTVSS” it was “low polyreactivity”; in that of “QVQLVESGGGLVQAGGSLRLSCAASGRTFRTYAMGWYRQAPGKERELVAAITSGGSTYYADSVKGRFTISRDNAKNTVYLQMNSLKPEDTAVYDCAAISTWGTKYDYWGQGTQVTVSS”, “high polyreactivity”.
Take “QVQLVESGGGLVQAGGSLRLSCAASGRTFRTYAMGWYRQAPGKERELVAAITTSGSSTYYADSVKGRFTISRDNAKNTVYLQMNSLKPEDTAVYYCAAARAAIVPGYYSWGQGTQVTVSS”: the “polyreactivity (PSR sort gate)” value is given as “low polyreactivity”.
Turning to “QVQLVESGGGLVQAGGSLRLSCAASGRTFRTYTMGWYRQAPGKERELVAAISWSGSSTYYADSVKGRFTISRDNAKNTVYLQMNSLKPEDTAGYYCAARGLYDYGYWGQGTQVTVSS”, the “polyreactivity (PSR sort gate)” value is given as “high polyreactivity”.
The value for “QVQLVESGGGLVQAGGSLRLSCAASGRTFRVYAIGWYRQAPGKEREFVATISVRGGSTYYADSVKGRFTISRDNAKNTVYLQMNSLKPEDTAVYYCAADSYPYVYALYDSWGLGTQVTVSS” was “low polyreactivity”; that for “QVQLVESGGGLVQAGGSLRLSCAASGRTFRVYAMGWYRQAPGKERELVAAINGGGSTNYADSVKGRFTISRDNAKNTVYLQMNSLKPEDTAVYYCIATGRRSKRIYDYWGQGTQVTVSS” was “high polyreactivity”.
In the case of “QVQLVESGGGLVQAGGSLRLSCAASGRTFRVYAMGWYRQAPGKERELVAAINGGGSTNYADSVKGRFTISRDNAKNTVYVQMNSLKPEDTAVYYCNATGRRSKRIYDYWGQGTQVTVSS” it was “high polyreactivity”; in that of “QVQLVESGGGLVQAGGSLRLSCAASGRTFRVYAMGWYRQAPGKERELVAGIRSRGGSTYYADSVKGRFTISRDYAKNTVYLQMNSLKPEDTAVYYCAAGYYLPQAIYEYWGLGTQVTVSS”, “high polyreactivity”; in that of “QVQLVESGGGLVQAGGSLRLSCAASGRTFRWNAMGWYRQAPGKERELVASITVNGGSTSYADSVKGRFTISRDNAKNTVYLQMNSLKPEDTAVYYCNAYYTYWYPRYDYWGQGTQVTVSS”, “low polyreactivity”.
In the case of “QVQLVESGGGLVQAGGSLRLSCAASGRTFRWNVMGWYRQAPGKERELVAAISSDGSTYYADSVKGRFTISGDNAKNTVYLQMNSLKPEDTAVYYCAAVVSYYFRYGGSAYKYGYWGQGTQVTVSS” it was “high polyreactivity”; in that of “QVQLVESGGGLVQAGGSLRLSCAASGRTFRWYAMGWYRQAPGKERELVAAIRSGGRTYYADSVKGRFTISRDNAKNTVYLQMNSLKPEDTAVYYCAALAVTYRYDYWGQGTQVTVSS”, “high polyreactivity”; in that of “QVQLVESGGGLVQAGGSLRLSCAASGRTFRWYAMGWYRQAPGKERELVAAITSDGRTYYADSVKGRFTISRDNAKNTVYLQMNSLNPEDTAVYYCNAACRYAFPFGYNYWGQGTQVTVSS”, “high polyreactivity”.
Regarding “QVQLVESGGGLVQAGGSLRLSCAASGRTFRWYTMGWYRQAPGKEREFVAAITWSGSSTNYADSVKGRFTISRDNAKNTVYLQMNSLKPEDTAVYYCAAENRRRRDDYWGQGTQVTVSS”, the “polyreactivity (PSR sort gate)” value is “high polyreactivity”.
In the case of “QVQLVESGGGLVQAGGSLRLSCAASGRTFRYNAMGWYRQAPGKERELVAAINWNGGSTYYADSVKGRFTISRDNAKNTGYLQMHSLKPEDTAVYYCNADFYHRYDWGQGTQVTGSS”, the “polyreactivity (PSR sort gate)” value is reported as “high polyreactivity”.
The value for “QVQLVESGGGLVQAGGSLRLSCAASGRTFRYNAMGWYRQAPGKERELVAAISGRGSSTYYADSVKGRFTISRDNAKNTVYLQMNSLKPEDTAVYYCAADRFRLYVGGWWYDYWGQGTQVTVSS” was “high polyreactivity”; that for “QVQLVESGGGLVQAGGSLRLSCAASGRTFRYNAMGWYRQAPGKERELVAAISGRGSSTYYSDSVKGRFTISRDNAKNTVYLQMNSLTPEDTAVYYCAALPASVRRPAWHDYWGQGTQVTVSS” was “high polyreactivity”; that for “QVQLVESGGGLVQAGGSLRLSCAASGRTFRYNAMGWYRQAPGKERELVADITFSGGNTYYADSVKGRFTISRDNAKNTVYLQMNSLKPEDTAVYYCAKRRYYTGGMDYWGQGTQVTVSS” was “low polyreactivity”.
The value for “QVQLVESGGGLVQAGGSLRLSCAASGRTFRYNAMGWYRQAPGKERELVAGITWRGGRTYYADSVKGRFTISRDNAKNTVYLQMNSLKPEDTAVYYCNTAGYYWLHYTMDYWGQGTQVTVSS” was “high polyreactivity”; that for “QVQLVESGGGLVQAGGSLRLSCAASGRTFRYNAMGWYRQAPGKERELVASIRYSSASTYYADSVKGRFTISRDNAKNTVYLQMNSLKPEDTAVYYCAASWYPVIVGYDYWGQGTQVTVSS” was “high polyreactivity”.
As for “QVQLVESGGGLVQAGGSLRLSCAASGRTFRYNAMGWYRQAPGKERELVATISSSGGSTSYADSVKGRFTISRDNAKNTVYLQMNSLKREDTAVYYCNKRRLVAPGNGMDSWGQGTQVTVSS”, the “polyreactivity (PSR sort gate)” value is “low polyreactivity”.
The value for “QVQLVESGGGLVQAGGSLRLSCAASGRTFRYNTMGWYRQAPGKERELVAITYRGGSTYADSVKGRFTISRDNAKNTVYLQMNSLKPEDTAVYYCAKVVNWCRGYGGTDHYYWGQGTQVTVSS” was “high polyreactivity”; that for “QVQLVESGGGLVQAGGSLRLSCAASGRTFRYNVMGWYRQAPGKERELVAAITYSGGRTYYADSVKGRFTISRDNVKNTVYLQMNSLKPEDTAVYYCAALSAPGYGRYNYWGQGTQVTVSS” was “high polyreactivity”.
In the case of “QVQLVESGGGLVQAGGSLRLSCAASGRTFRYYAKGWYRPAPGTERELVADISSTGRTYYADSVKGRFTISRDNAKNTVYLQMNSLKPEDTAVYYCNADYFFEFDYWGQGTQVTVSS” it was “low polyreactivity”; in that of “QVQLVESGGGLVQAGGSLRLSCAASGRTFRYYAMAWYRQAPGKERELVAAIRSGGITNYADSVKGRFTISLDNAKYTVYLQMNRLKPEDTAVYYCAQAIRGHYWGQGTQVTVSS”, “high polyreactivity”; in that of “QVQLVESGGGLVQAGGSLRLSCAASGRTFRYYAMGWYREAPGKERELVAAISSSGDRTYYADSVKGRFTISRDNAKNTVYVQMNSLKPEDTAVYYCAKDSYRRYWGQGTQVTVSS”, “high polyreactivity”.
For the sequence “QVQLVESGGGLVQAGGSLRLSCAASGRTFRYYAMGWYRKAPGKERELVATISKSGGSTYYADSVKGRFTISRDNAKNTVYLQMNSLKPEDTAVYYCAAVGPYRWYDYWGQGTQVTVSS”, the “polyreactivity (PSR sort gate)” value is given as “high polyreactivity”.
In the case of “QVQLVESGGGLVQAGGSLRLSCAASGRTFRYYAMGWYRPAPGKERELVAAITISSGSTYYADSVKGRFTISRDNAKNTVYLQMNSLKPEDTAVYYCAATRRYHFDYWGQGTQVTVSS” it was “high polyreactivity”; in that of “QVQLVESGGGLVQAGGSLRLSCAASGRTFRYYAMGWYRQAPGKEREFVAAITSRSSRTYYADSVKGRFTISRDTAKNTVYLQMNSLKPEDTAVYYCARGSELGYYAWVYYWGQGTQVTVSS”, “high polyreactivity”; in that of “QVQLVESGGGLVQAGGSLRLSCAASGRTFRYYAMGWYRQAPGKERELVAAISSSGDRTYYADSVKGRFTISRDNAKNTVYLQMNSLKPEDTAVYYCAADRGARGDYWGQGTQVTVSS”, “high polyreactivity”.
The value for “QVQLVESGGGLVQAGGSLRLSCAASGRTFRYYAMGWYRQAPGKERELVAAISYSGGSTYYADSVKGRFTISRDNAKNTVYLQMNSLKPEDTAVYYCAAGPWHYKYSLRGWGYYWGQGTQVTVSS” was “high polyreactivity”.
